According to patent US20240342246A1 (YALE UNIVERSITY, published 2024):
Changes are numbered by the printed parent chain. Names and notes keep the numbering of the source. Values belong to the binder of their own block, whether it stands above or below them.

Target: IL-12 receptor β1 (IL-12Rβ1) (human, UniProt P42701 24-662)
Test: cell-based or functional assay

EC50 of STAT4 phosphorylation in human NK cells (flow cytometry, FIG. 3A): 0.0408 µg/mL
EC50 of STAT4 phosphorylation in human NK cells (flow cytometry, FIG. 3B): 0.0574 µg/mL
B1: wild-type (WT) IL-12 (ligand)
chain 1: IWELKKDVYVVELDWYPDAPGEMVVLTCDTPEEDGITWTLDQSSEVLGSGKTLTIQVKEFGDAGQYTCHKGGEVLSHSLLLLHKKEDGIWSTDILKDQKEPKNKTFLRCEAKNYSGRFTCWWLTTISTDLTFSVKSSRGSSDPQGVTCGAATLSAERVRGDNKEYEYSVECQEDSACPAAEESLPIEVMVDAVHKLKYENYTSSFFIRDIIKPDPPKNLQLKPLKNSRQVEVSWEYPDTWSTPHSYFSLTFCVQVQGKSKREKKDRVFTDKTSATVICRKNASISVRAQDRYYSSSWSEWASVPCS
chain 2: RNLPVATPDPGMFPCLHHSQNLLRAVSNMLQKARQTLEFYPCTSEEIDHEDITKDKTSTVEACLPLELTKNESCLNSRETSFITNGSCLASRKTSFMMALCLSSIYEDLKMYQVEFKTMNAKLLMDPKRQIFLDQNMLAVIDELMQALNFNSETVPQKSSLEEPDFYKTKIKLCILLHAFRIRAVTIDRVMSYLNAS

EC50 of STAT4 phosphorylation in human NK cells (flow cytometry, FIG. 3B): 0.29 µg/mL
B2: H216A/K219A IL-12 (IL-12p40 HK219 with WT IL-12p35) (ligand)
chain 1: B1 chain 1 with H194A, K197A
chain 2: B1 chain 2

EC50 of STAT4 phosphorylation in human NK cells (flow cytometry, FIG. 3A): 0.839 µg/mL
B3: IL-12 H216A/K217A/K219A triple mutant (HKK) (ligand)
chain 1: B1 chain 1 with H194A, K195A, K197A
chain 2: B1 chain 2
